In article PMC8519570 (2021) one finds Kd data, which are given here for 1 molecule.

The experiment has as its target DENV2 sE WT (soluble envelope protein E of dengue virus 2, wild type) (dengue virus 2 (strain 16681)). As to the kind of experiment: BLI. (In general: In BLI a coated tip is dipped into the sample, and binding shifts an interference pattern.)

B1: EDE1 C10 quaternary epitope antibody (antibody, V domains shown)
VH: EVQLVESGAEVKKPGASVKVSCKASGYTFTSYAMHWVRQAPGQRLEWMGWINAGNGNTKYSQKFQDRVTITRDTSASTAYMELSSLRSEDTAIYYCARDKVDDYGDYWFPTLWYFDYWGQGTLVTVSS
VL: QSALTQPASVSGSPGQSITISCTGTSSDVGGFNYVSWFQQHPGKAPKLMLYDVTSRPSGVSSRFSGSKSGNTASLTISGLQAEDEADYYCSSHTSRGTWVFGGGTKLTVL
For B1, the Kd (commonly a measure of binding affinity in units of concentration) is more than 1 µM.
